Measurements from the RNAGym collection of RNA variant scans (doi:10.1021/acssynbio.7b00057).

B1: Pistol ribozyme (parent)
chain: GGGUCGUUGUUCCAUAAUCGCGUGGAUAUGGCACGCAAGUUUCUACCGGGCACCGUAAAUGUCCGACUGGAGCCGUUCGGGCGGCUAUAAACAGACCUCAGGCCCGAAGCGUGGCGGCACCUGCCGCCGGUGGUAAAAAAGAUCGGAAGAGCACACGUCU

Variants of: B1
Assay: aptazyme ON/OFF ratio, guanine; higher = stronger switching; co-transcriptional cleavage with and without guanine

| Variant | aptazyme ON/OFF ratio |
| --- | --- |
| GGGUCGCAGUCAGAUAAUCGCGUGGAUAUGGCACGCAAGUUUCUACCGGGCACCGUAAAUGUCCGACUGGAGCCGUUCGGGCGGCUAUAAACAGACCUCAGGCCCGAAGCGUGGCGGCACCUGCCGCCGGUGGUAAAAAAGAUCGGAAGAGCACACGUCU [U7C U8A U11C C12A C13G] | 1.18 |
| GGGUCGGUUGUUGAUAAUCGCGUGGAUAUGGCACGCAAGUUUCUACCGGGCACCGUAAAUGUCCGACUGGAGCCGUUCGGGCGGCUAUAAACAGACCUCAGGCCCGAAGCGUGGCGGCACCUGCCGCCGGUGGUAAAAAAGAUCGGAAGAGCACACGUCU [U7G G9U U10G C12U C13G] | 1.34 |
| GGGUCGAAAGUCAAUAAUCGCGUGGAUAUGGCACGCAAGUUUCUACCGGGCACCGUAAAUGUCCGACUGGAGCCGUUCGGGCGGCUAUAAACAGACCUCAGGCCCGAAGCGUGGCGGCACCUGCCGCCGGUGGUAAAAAAGAUCGGAAGAGCACACGUCU [U7A U8A G9A U10G C13A] | 1.6 |
| GGGUCGUGAACACAUAAUCGCGUGGAUAUGGCACGCAAGUUUCUACCGGGCACCGUAAAUGUCCGACUGGAGCCGUUCGGGCGGCUAUAAACAGACCUCAGGCCCGAAGCGUGGCGGCACCUGCCGCCGGUGGUAAAAAAGAUCGGAAGAGCACACGUCU [U8G G9A U10A U11C C12A] | 1.2 |
| GGGUCGUUGGAGGAUAAUCGCGUGGAUAUGGCACGCAAGUUUCUACCGGGCACCGUAAAUGUCCGACUGGAGCCGUUCGGGCGGCUAUAAACAGACCUCAGGCCCGAAGCGUGGCGGCACCUGCCGCCGGUGGUAAAAAAGAUCGGAAGAGCACACGUCU [U10G U11A C12G C13G] | 1.34 |
| GGGUCGUGGUAGCAUAAUCGCGUGGAUAUGGCACGCAAGUUUCUACCGGGCACCGUAAAUGUCCGACUGGAGCCGUUCGGGCGGCUAUAAACAGACCUCAGGCCCGAAGCGUGGCGGCACCUGCCGCCGGUGGUAAAAAAGAUCGGAAGAGCACACGUCU [U8G U11A C12G] | 1.1 |
| GGGUCGUCGUCCGAUAAUCGCGUGGAUAUGGCACGCAAGUUUCUACCGGGCACCGUAAAUGUCCGACUGGAGCCGUUCGGGCGGCUAUAAACAGACCUCAGGCCCGAAGCGUGGCGGCACCUGCCGCCGGUGGUAAAAAAGAUCGGAAGAGCACACGUCU [U8C U11C C13G] | 1.11 |
| GGGUCGGGGCGCGAUAAUCGCGUGGAUAUGGCACGCAAGUUUCUACCGGGCACCGUAAAUGUCCGACUGGAGCCGUUCGGGCGGCUAUAAACAGACCUCAGGCCCGAAGCGUGGCGGCACCUGCCGCCGGUGGUAAAAAAGAUCGGAAGAGCACACGUCU [U7G U8G U10C U11G C13G] | 1.21 |
| GGGUCGUUACUUAAUAAUCGCGUGGAUAUGGCACGCAAGUUUCUACCGGGCACCGUAAAUGUCCGACUGGAGCCGUUCGGGCGGCUAUAAACAGACCUCAGGCCCGAAGCGUGGCGGCACCUGCCGCCGGUGGUAAAAAAGAUCGGAAGAGCACACGUCU [G9A U10C C12U C13A] | 1.38 |
| GGGUCGUCUAACUAUAAUCGCGUGGAUAUGGCACGCAAGUUUCUACCGGGCACCGUAAAUGUCCGACUGGAGCCGUUCGGGCGGCUAUAAACAGACCUCAGGCCCGAAGCGUGGCGGCACCUGCCGCCGGUGGUAAAAAAGAUCGGAAGAGCACACGUCU [U8C G9U U10A U11A C13U] | 1.22 |
| GGGUCGAGUCAAUAUAAUCGCGUGGAUAUGGCACGCAAGUUUCUACCGGGCACCGUAAAUGUCCGACUGGAGCCGUUCGGGCGGCUAUAAACAGACCUCAGGCCCGAAGCGUGGCGGCACCUGCCGCCGGUGGUAAAAAAGAUCGGAAGAGCACACGUCU [U7A U8G G9U U10C U11A C12A C13U] | 1.47 |
| GGGUCGCUUCCGUAUAAUCGCGUGGAUAUGGCACGCAAGUUUCUACCGGGCACCGUAAAUGUCCGACUGGAGCCGUUCGGGCGGCUAUAAACAGACCUCAGGCCCGAAGCGUGGCGGCACCUGCCGCCGGUGGUAAAAAAGAUCGGAAGAGCACACGUCU [U7C G9U U10C U11C C12G C13U] | 1.02 |
| GGGUCGUGGCCCGAUAAUCGCGUGGAUAUGGCACGCAAGUUUCUACCGGGCACCGUAAAUGUCCGACUGGAGCCGUUCGGGCGGCUAUAAACAGACCUCAGGCCCGAAGCGUGGCGGCACCUGCCGCCGGUGGUAAAAAAGAUCGGAAGAGCACACGUCU [U8G U10C U11C C13G] | 1.03 |
| GGGUCGACGACCCAUAAUCGCGUGGAUAUGGCACGCAAGUUUCUACCGGGCACCGUAAAUGUCCGACUGGAGCCGUUCGGGCGGCUAUAAACAGACCUCAGGCCCGAAGCGUGGCGGCACCUGCCGCCGGUGGUAAAAAAGAUCGGAAGAGCACACGUCU [U7A U8C U10A U11C] | 1.03 |
| GGGUCGAGUACAUAUAAUCGCGUGGAUAUGGCACGCAAGUUUCUACCGGGCACCGUAAAUGUCCGACUGGAGCCGUUCGGGCGGCUAUAAACAGACCUCAGGCCCGAAGCGUGGCGGCACCUGCCGCCGGUGGUAAAAAAGAUCGGAAGAGCACACGUCU [U7A U8G G9U U10A U11C C12A C13U] | 1.37 |
| GGGUCGAUACUCGAUAAUCGCGUGGAUAUGGCACGCAAGUUUCUACCGGGCACCGUAAAUGUCCGACUGGAGCCGUUCGGGCGGCUAUAAACAGACCUCAGGCCCGAAGCGUGGCGGCACCUGCCGCCGGUGGUAAAAAAGAUCGGAAGAGCACACGUCU [U7A G9A U10C C13G] | 1.06 |
| GGGUCGCGGCGUGAUAAUCGCGUGGAUAUGGCACGCAAGUUUCUACCGGGCACCGUAAAUGUCCGACUGGAGCCGUUCGGGCGGCUAUAAACAGACCUCAGGCCCGAAGCGUGGCGGCACCUGCCGCCGGUGGUAAAAAAGAUCGGAAGAGCACACGUCU [U7C U8G U10C U11G C12U C13G] | 1.17 |
| GGGUCGCUAACAUAUAAUCGCGUGGAUAUGGCACGCAAGUUUCUACCGGGCACCGUAAAUGUCCGACUGGAGCCGUUCGGGCGGCUAUAAACAGACCUCAGGCCCGAAGCGUGGCGGCACCUGCCGCCGGUGGUAAAAAAGAUCGGAAGAGCACACGUCU [U7C G9A U10A U11C C12A C13U] | 1.24 |

| Variant | aptazyme ON/OFF ratio |
| --- | --- |
| GGGUCGUUUUCGUAUAAUCGCGUGGAUAUGGCACGCAAGUUUCUACCGGGCACCGUAAAUGUCCGACUGGAGCCGUUCGGGCGGCUAUAAACAGACCUCAGGCCCGAAGCGUGGCGGCACCUGCCGCCGGUGGUAAAAAAGAUCGGAAGAGCACACGUCU [G9U U11C C12G C13U] | 1.68 |
| GGGUCGGGGAUUCAUAAUCGCGUGGAUAUGGCACGCAAGUUUCUACCGGGCACCGUAAAUGUCCGACUGGAGCCGUUCGGGCGGCUAUAAACAGACCUCAGGCCCGAAGCGUGGCGGCACCUGCCGCCGGUGGUAAAAAAGAUCGGAAGAGCACACGUCU [U7G U8G U10A C12U] | 1.45 |
| GGGUCGAGAGGUAAUAAUCGCGUGGAUAUGGCACGCAAGUUUCUACCGGGCACCGUAAAUGUCCGACUGGAGCCGUUCGGGCGGCUAUAAACAGACCUCAGGCCCGAAGCGUGGCGGCACCUGCCGCCGGUGGUAAAAAAGAUCGGAAGAGCACACGUCU [U7A U8G G9A U10G U11G C12U C13A] | 1.33 |
| GGGUCGCAGGAAAAUAAUCGCGUGGAUAUGGCACGCAAGUUUCUACCGGGCACCGUAAAUGUCCGACUGGAGCCGUUCGGGCGGCUAUAAACAGACCUCAGGCCCGAAGCGUGGCGGCACCUGCCGCCGGUGGUAAAAAAGAUCGGAAGAGCACACGUCU [U7C U8A U10G U11A C12A C13A] | 1.14 |
| GGGUCGUACCUAGAUAAUCGCGUGGAUAUGGCACGCAAGUUUCUACCGGGCACCGUAAAUGUCCGACUGGAGCCGUUCGGGCGGCUAUAAACAGACCUCAGGCCCGAAGCGUGGCGGCACCUGCCGCCGGUGGUAAAAAAGAUCGGAAGAGCACACGUCU [U8A G9C U10C C12A C13G] | 1.08 |
| GGGUCGGUAGUUCAUAAUCGCGUGGAUAUGGCACGCAAGUUUCUACCGGGCACCGUAAAUGUCCGACUGGAGCCGUUCGGGCGGCUAUAAACAGACCUCAGGCCCGAAGCGUGGCGGCACCUGCCGCCGGUGGUAAAAAAGAUCGGAAGAGCACACGUCU [U7G G9A U10G C12U] | 1.14 |
| GGGUCGCCGCCUGAUAAUCGCGUGGAUAUGGCACGCAAGUUUCUACCGGGCACCGUAAAUGUCCGACUGGAGCCGUUCGGGCGGCUAUAAACAGACCUCAGGCCCGAAGCGUGGCGGCACCUGCCGCCGGUGGUAAAAAAGAUCGGAAGAGCACACGUCU [U7C U8C U10C U11C C12U C13G] | 1.15 |
| GGGUCGCCGGAACAUAAUCGCGUGGAUAUGGCACGCAAGUUUCUACCGGGCACCGUAAAUGUCCGACUGGAGCCGUUCGGGCGGCUAUAAACAGACCUCAGGCCCGAAGCGUGGCGGCACCUGCCGCCGGUGGUAAAAAAGAUCGGAAGAGCACACGUCU [U7C U8C U10G U11A C12A] | 1.3 |
| GGGUCGCGCACUCAUAAUCGCGUGGAUAUGGCACGCAAGUUUCUACCGGGCACCGUAAAUGUCCGACUGGAGCCGUUCGGGCGGCUAUAAACAGACCUCAGGCCCGAAGCGUGGCGGCACCUGCCGCCGGUGGUAAAAAAGAUCGGAAGAGCACACGUCU [U7C U8G G9C U10A U11C C12U] | 1.05 |
| GGGUCGGGGGUCUAUAAUCGCGUGGAUAUGGCACGCAAGUUUCUACCGGGCACCGUAAAUGUCCGACUGGAGCCGUUCGGGCGGCUAUAAACAGACCUCAGGCCCGAAGCGUGGCGGCACCUGCCGCCGGUGGUAAAAAAGAUCGGAAGAGCACACGUCU [U7G U8G U10G C13U] | 1.39 |
| GGGUCGGGACGGAAUAAUCGCGUGGAUAUGGCACGCAAGUUUCUACCGGGCACCGUAAAUGUCCGACUGGAGCCGUUCGGGCGGCUAUAAACAGACCUCAGGCCCGAAGCGUGGCGGCACCUGCCGCCGGUGGUAAAAAAGAUCGGAAGAGCACACGUCU [U7G U8G G9A U10C U11G C12G C13A] | 1.1 |
| GGGUCGGCUAGGCAUAAUCGCGUGGAUAUGGCACGCAAGUUUCUACCGGGCACCGUAAAUGUCCGACUGGAGCCGUUCGGGCGGCUAUAAACAGACCUCAGGCCCGAAGCGUGGCGGCACCUGCCGCCGGUGGUAAAAAAGAUCGGAAGAGCACACGUCU [U7G U8C G9U U10A U11G C12G] | 1.19 |
| GGGUCGCUUUCCCAUAAUCGCGUGGAUAUGGCACGCAAGUUUCUACCGGGCACCGUAAAUGUCCGACUGGAGCCGUUCGGGCGGCUAUAAACAGACCUCAGGCCCGAAGCGUGGCGGCACCUGCCGCCGGUGGUAAAAAAGAUCGGAAGAGCACACGUCU [U7C G9U U11C] | 1.12 |
| GGGUCGGAAGGGUAUAAUCGCGUGGAUAUGGCACGCAAGUUUCUACCGGGCACCGUAAAUGUCCGACUGGAGCCGUUCGGGCGGCUAUAAACAGACCUCAGGCCCGAAGCGUGGCGGCACCUGCCGCCGGUGGUAAAAAAGAUCGGAAGAGCACACGUCU [U7G U8A G9A U10G U11G C12G C13U] | 1.26 |
| GGGUCGCCGUGGUAUAAUCGCGUGGAUAUGGCACGCAAGUUUCUACCGGGCACCGUAAAUGUCCGACUGGAGCCGUUCGGGCGGCUAUAAACAGACCUCAGGCCCGAAGCGUGGCGGCACCUGCCGCCGGUGGUAAAAAAGAUCGGAAGAGCACACGUCU [U7C U8C U11G C12G C13U] | 1.09 |
| GGGUCGCAUCGUCAUAAUCGCGUGGAUAUGGCACGCAAGUUUCUACCGGGCACCGUAAAUGUCCGACUGGAGCCGUUCGGGCGGCUAUAAACAGACCUCAGGCCCGAAGCGUGGCGGCACCUGCCGCCGGUGGUAAAAAAGAUCGGAAGAGCACACGUCU [U7C U8A G9U U10C U11G C12U] | 1.21 |
| GGGUCGGAUUCGAAUAAUCGCGUGGAUAUGGCACGCAAGUUUCUACCGGGCACCGUAAAUGUCCGACUGGAGCCGUUCGGGCGGCUAUAAACAGACCUCAGGCCCGAAGCGUGGCGGCACCUGCCGCCGGUGGUAAAAAAGAUCGGAAGAGCACACGUCU [U7G U8A G9U U11C C12G C13A] | 1.09 |
| GGGUCGGGUCGUAAUAAUCGCGUGGAUAUGGCACGCAAGUUUCUACCGGGCACCGUAAAUGUCCGACUGGAGCCGUUCGGGCGGCUAUAAACAGACCUCAGGCCCGAAGCGUGGCGGCACCUGCCGCCGGUGGUAAAAAAGAUCGGAAGAGCACACGUCU [U7G U8G G9U U10C U11G C12U C13A] | 1.23 |
